Measurements as given in patent US20210275545A1 (YEDA RESEARCH AND DEVELOPMENT, published 2021).

T1: GR-Gluc2 (full-length glucocorticoid receptor fused at its carboxyl terminus to Gluc2) (human, UniProt P04150 1-777)
T1 construct: domain: full length;range 94-169; Expressed in HEK-293/HEK-293T cells by transfection; also called Gluc2-GR; not shown: Gaussia luciferase (Gluc), carboxyl-terminal fragment Gluc2, amino acids 94-169
T1 sequence (looked up): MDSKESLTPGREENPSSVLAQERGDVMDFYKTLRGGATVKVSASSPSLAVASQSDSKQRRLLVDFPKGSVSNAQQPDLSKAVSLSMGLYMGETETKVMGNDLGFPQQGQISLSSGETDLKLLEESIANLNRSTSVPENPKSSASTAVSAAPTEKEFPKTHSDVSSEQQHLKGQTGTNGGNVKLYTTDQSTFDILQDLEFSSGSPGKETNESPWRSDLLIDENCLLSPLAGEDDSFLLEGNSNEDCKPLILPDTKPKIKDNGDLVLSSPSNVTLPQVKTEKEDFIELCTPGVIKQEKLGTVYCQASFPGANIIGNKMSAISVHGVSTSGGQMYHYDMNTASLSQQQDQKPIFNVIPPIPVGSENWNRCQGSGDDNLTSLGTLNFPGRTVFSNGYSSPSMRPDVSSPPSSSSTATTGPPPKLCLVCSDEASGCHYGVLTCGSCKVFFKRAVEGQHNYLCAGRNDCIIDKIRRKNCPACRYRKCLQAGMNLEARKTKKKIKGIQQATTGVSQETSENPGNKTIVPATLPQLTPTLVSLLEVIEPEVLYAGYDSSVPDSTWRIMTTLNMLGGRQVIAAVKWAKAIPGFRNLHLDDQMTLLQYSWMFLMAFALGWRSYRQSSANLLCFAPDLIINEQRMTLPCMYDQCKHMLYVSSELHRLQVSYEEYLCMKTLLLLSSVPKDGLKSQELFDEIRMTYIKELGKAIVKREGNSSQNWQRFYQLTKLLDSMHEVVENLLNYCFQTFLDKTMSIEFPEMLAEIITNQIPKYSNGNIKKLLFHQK

T2: MR-Gluc2 (mineralocorticoid receptor fused to Gluc2) (UniProt P08235 1-984)
T2 construct: not shown: Gaussia luciferase (Gluc), carboxyl-terminal fragment Gluc2, amino acids 94-169
T2 sequence (looked up): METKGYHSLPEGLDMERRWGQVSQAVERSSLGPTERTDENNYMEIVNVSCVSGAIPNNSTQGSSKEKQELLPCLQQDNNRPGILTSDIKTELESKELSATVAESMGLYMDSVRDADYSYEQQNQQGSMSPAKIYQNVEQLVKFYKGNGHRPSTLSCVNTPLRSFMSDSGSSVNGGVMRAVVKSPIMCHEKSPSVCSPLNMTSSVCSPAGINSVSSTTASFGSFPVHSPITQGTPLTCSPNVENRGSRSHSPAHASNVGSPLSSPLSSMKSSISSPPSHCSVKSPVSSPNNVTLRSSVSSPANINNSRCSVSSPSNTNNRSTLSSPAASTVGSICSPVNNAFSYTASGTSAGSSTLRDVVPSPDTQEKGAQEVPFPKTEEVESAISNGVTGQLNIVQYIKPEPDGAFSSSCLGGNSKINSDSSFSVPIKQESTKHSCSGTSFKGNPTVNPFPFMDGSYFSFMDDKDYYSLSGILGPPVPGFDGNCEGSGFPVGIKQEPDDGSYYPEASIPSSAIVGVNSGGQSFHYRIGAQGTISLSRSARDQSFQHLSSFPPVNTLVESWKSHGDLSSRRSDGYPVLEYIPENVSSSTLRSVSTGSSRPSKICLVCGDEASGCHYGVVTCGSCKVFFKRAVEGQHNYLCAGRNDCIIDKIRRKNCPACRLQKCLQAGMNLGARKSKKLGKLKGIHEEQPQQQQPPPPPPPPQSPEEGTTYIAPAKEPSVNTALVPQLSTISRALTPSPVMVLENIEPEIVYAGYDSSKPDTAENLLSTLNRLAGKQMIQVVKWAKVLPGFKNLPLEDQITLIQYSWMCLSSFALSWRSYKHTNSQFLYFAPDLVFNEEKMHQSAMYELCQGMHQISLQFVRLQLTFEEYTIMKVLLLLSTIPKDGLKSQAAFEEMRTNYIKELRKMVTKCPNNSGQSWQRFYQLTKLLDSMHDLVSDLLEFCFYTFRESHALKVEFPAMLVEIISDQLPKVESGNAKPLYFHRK

T3: ERα-Gluc2 (estrogen receptor alpha fused to Gluc2) (UniProt P03372 1-595)
T3 construct: not shown: Gaussia luciferase (Gluc), carboxyl-terminal fragment Gluc2, amino acids 94-169
T3 sequence (looked up): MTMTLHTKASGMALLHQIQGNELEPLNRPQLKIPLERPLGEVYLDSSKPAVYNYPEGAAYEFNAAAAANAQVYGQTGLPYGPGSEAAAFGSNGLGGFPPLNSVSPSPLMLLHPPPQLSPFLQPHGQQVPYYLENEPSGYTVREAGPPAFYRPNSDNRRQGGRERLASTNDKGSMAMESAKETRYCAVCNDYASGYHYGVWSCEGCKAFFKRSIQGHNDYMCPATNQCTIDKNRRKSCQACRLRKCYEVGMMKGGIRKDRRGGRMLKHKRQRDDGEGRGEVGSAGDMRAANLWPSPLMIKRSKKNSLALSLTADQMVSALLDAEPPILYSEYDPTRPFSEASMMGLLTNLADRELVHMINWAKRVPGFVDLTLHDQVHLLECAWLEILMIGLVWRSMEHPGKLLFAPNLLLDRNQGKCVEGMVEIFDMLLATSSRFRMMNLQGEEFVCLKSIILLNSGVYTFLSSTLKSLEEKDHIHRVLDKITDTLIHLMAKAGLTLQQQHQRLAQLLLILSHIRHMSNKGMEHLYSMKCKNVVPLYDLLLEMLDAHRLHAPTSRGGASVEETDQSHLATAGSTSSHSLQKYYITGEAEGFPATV


Assays:
[1] = biological target: T1, GR-Gluc2 (full-length glucocorticoid …); experiment: PCA in HEK-293T cells, DEX 1 µM or estradiol 10 nM 60 min (FIG. 8D)
Experimental: (§1) (A) HEK-293T cells (6×10³) were seeded in 96-well plates. […] (B and C) HEK-293T cells (6×10³) were seeded in 96-well plates. […] Cells were then lysed and luminescence was determined.

[2] = biological target: T2, MR-Gluc2 (mineralocorticoid receptor …); experiment: PCA in HEK-293T cells, DEX 1 µM 60 min (FIG. 8B)
Experimental: as §1

[3] = biological target: T3, ERα-Gluc2 (estrogen receptor alpha …); experiment: PCA in HEK-293T cells, estradiol 10 nM 60 min (FIG. 8C)
Experimental: as §1

[4] = biological target: T3, ERα-Gluc2 (estrogen receptor alpha …); experiment: PCA in HEK-293T cells, vehicle against estradiol 10 nM 60 min (FIG. 8C)
Experimental: as §1

[5] = biological target: T1, GR-Gluc2 (full-length glucocorticoid …); experiment: PCA in HEK-293T cells, DEX 1 µM with or without RU486 1 µM (FIG. 1C)
Text: EB, empty beads; C, solvent control. Images shown are representative of three biological replicates.
The resulting luminescence was normalized to the signal associated with cells treated with vehicle only.

[6] = biological target: T1, GR-Gluc2 (full-length glucocorticoid …); experiment: PCA time course after DEX 1 µM in HEK-293T cells (FIG. 2A)
Experimental: (A) HEK-293T cells (6×10³) were seeded in 96-well plates. […] Luminescence of vehicle-treated cells was used for normalization. […] Images were processed using the Zeiss ZEN2011 software. […] Bars, 20 μm.

Binder | binding result [2] | binding result [3] | also measured
ERα-Gluc1 (estrogen receptor alpha fused to Gluc1) (receptor, UniProt P03372 1-595, looked up, not shown: Gaussia luciferase (Gluc), amino-terminal fragment Gluc1, amino acids 1-93) MTMTLHTKASGMALLHQIQGNELEPLNRPQLKIPLERPLGEVYLDSSKPAVYNYPEGAAYEFNAAAAANAQVYGQTGLPYGPGSEAAAFGSNGLGGFPPLNSVSPSPLMLLHPPPQLSPFLQPHGQQVPYYLENEPSGYTVREAGPPAFYRPNSDNRRQGGRERLASTNDKGSMAMESAKETRYCAVCNDYASGYHYGVWSCEGCKAFFKRSIQGHNDYMCPATNQCTIDKNRRKSCQACRLRKCYEVGMMKGGIRKDRRGGRMLKHKRQRDDGEGRGEVGSAGDMRAANLWPSPLMIKRSKKNSLALSLTADQMVSALLDAEPPILYSEYDPTRPFSEASMMGLLTNLADRELVHMINWAKRVPGFVDLTLHDQVHLLECAWLEILMIGLVWRSMEHPGKLLFAPNLLLDRNQGKCVEGMVEIFDMLLATSSRFRMMNLQGEEFVCLKSIILLNSGVYTFLSSTLKSLEEKDHIHRVLDKITDTLIHLMAKAGLTLQQQHQRLAQLLLILSHIRHMSNKGMEHLYSMKCKNVVPLYDLLLEMLDAHRLHAPTSRGGASVEETDQSHLATAGSTSSHSLQKYYITGEAEGFPATV |  |  | binding result [1]: binds
Gluc1-ETV2 (other, UniProt O00321 1-342, looked up, not shown: Gaussia luciferase (Gluc), amino-terminal fragment Gluc1, amino acids 1-93) MDLWNWDEASPQEVPPGNKLAGLEGAKLGFCFPDLALQGDTPTATAETCWKGTSSSLASFPQLDWGSALLHPEVPWGAEPDSQALPWSGDWTDMACTAWDSWSGASQTLGPAPLGPGPIPAAGSEGAAGQNCVPVAGEATSWSRAQAAGSNTSWDCSVGPDGDTYWGSGLGGEPRTDCTISWGGPAGPDCTTSWNPGLHAGGTTSLKRYQSSALTVCSEPSPQSDRASLARCPKTNHRGPIQLWQFLLELLHDGARSSCIRWTGNSREFQLCDPKEVARLWGERKRKPGMNYEKLSRGLRYYYRRDIVRKSGGRKYTYRFGGRVPSLAYPDCAGGGRGAETQ | binds | no binding | 
Gluc1-ELF3 (other, UniProt P78545 1-371, looked up, not shown: Gaussia luciferase (Gluc), amino-terminal fragment Gluc1, amino acids 1-93) MAATCEISNIFSNYFSAMYSSEDSTLASVPPAATFGADDLVLTLSNPQMSLEGTEKASWLGEQPQFWSKTQVLDWISYQVEKNKYDASAIDFSRCDMDGATLCNCALEELRLVFGPLGDQLHAQLRDLTSSSSDELSWIIELLEKDGMAFQEALDPGPFDQGSPFAQELLDDGQQASPYHPGSCGAGAPSPGSSDVSTAGTGASRSSHSSDSGGSDVDLDPTDGKLFPSDGFRDCKKGDPKHGKRKRGRPRKLSKEYWDCLEGKKSKHAPRGTHLWEFIRDILIHPELNEGLMKWENRHEGVFKFLRSEAVAQLWGQKKKNSNMTYEKLSRAMRYYYKREILERVDGRRLVYKFGKNSSGWKEEEVLQSRN |  |  | binding result [4]: binds
Gluc1-FLI1 (full-length FLI1 fused downstream of Gluc1) (other, UniProt Q01543 1-452, looked up, range 1-93;domain: full length; also called FiI1; not shown: Gaussia luciferase (Gluc), amino-terminal fragment Gluc1, amino acids 1-93) MDGTIKEALSVVSDDQSLFDSAYGAAAHLPKADMTASGSPDYGQPHKINPLPPQQEWINQPVRVNVKREYDHMNGSRESPVDCSVSKCSKLVGGGESNPMNYNSYMDEKNGPPPPNMTTNERRVIVPADPTLWTQEHVRQWLEWAIKEYSLMEIDTSFFQNMDGKELCKMNKEDFLRATTLYNTEVLLSHLSYLRESSLLAYNTTSHTDQSSRLSVKEDPSYDSVRRGAWGNNMNSGLNKSPPLGGAQTISKNTEQRPQPDPYQILGPTSSRLANPGSGQIQLWQFLLELLSDSANASCITWEGTNGEFKMTDPDEVARRWGERKSKPNMNYDKLSRALRYYYDKNIMTKVHGKRYAYKFDFHGIAQALQPHPTESSMYKYPSDISYMPSYHAHQQKVNFVPPHPSSMPVTSSSFFGAASQYWTSPTGGIYPNPNVPRHPNTHVPSHLGSYY |  | no binding | 
Gluc1-ETV4 (other, UniProt P43268 1-484, looked up, not shown: Gaussia luciferase (Gluc), amino-terminal fragment Gluc1, amino acids 1-93) MERRMKAGYLDQQVPYTFSSKSPGNGSLREALIGPLGKLMDPGSLPPLDSEDLFQDLSHFQETWLAEAQVPDSDEQFVPDFHSENLAFHSPTTRIKKEPQSPRTDPALSCSRKPPLPYHHGEQCLYSSAYDPPRQIAIKSPAPGALGQSPLQPFPRAEQRNFLRSSGTSQPHPGHGYLGEHSSVFQQPLDICHSFTSQGGGREPLPAPYQHQLSEPCPPYPQQSFKQEYHDPLYEQAGQPAVDQGGVNGHRYPGAGVVIKQEQTDFAYDSDVTGCASMYLHTEGFSGPSPGDGAMGYGYEKPLRPFPDDVCVVPEKFEGDIKQEGVGAFREGPPYQRRGALQLWQFLVALLDDPTNAHFIAWTGRGMEFKLIEPEEVARLWGIQKNRPAMNYDKLSRSLRYYYEKGIMQKVAGERYVYKFVCEPEALFSLAFPDNQRPALKAEFDRPVSEEDTVPLSHLDESPAYLPELAGPAQPFGPKGGYSY |  | no binding | binding result [5]: binds
Gluc1-ERG (other, UniProt P11308-3 1-486, looked up, not shown: Gaussia luciferase (Gluc), amino-terminal fragment Gluc1, amino acids 1-93) MIQTVPDPAAHIKEALSVVSEDQSLFECAYGTPHLAKTEMTASSSSDYGQTSKMSPRVPQQDWLSQPPARVTIKMECNPSQVNGSRNSPDECSVAKGGKMVGSPDTVGMNYGSYMEEKHMPPPNMTTNERRVIVPADPTLWSTDHVRQWLEWAVKEYGLPDVNILLFQNIDGKELCKMTKDDFQRLTPSYNADILLSHLHYLRETPLPHLTSDDVDKALQNSPRLMHARNTGGAAFIFPNTSVYPEATQRITTRPDLPYEPPRRSAWTGHGHPTPQSKAAQPSPSTVPKTEDQRPQLDPYQILGPTSSRLANPGSGQIQLWQFLLELLSDSSNSSCITWEGTNGEFKMTDPDEVARRWGERKSKPNMNYDKLSRALRYYYDKNIMTKVHGKRYAYKFDFHGIAQALQPHPPESSLYKYPSDLPYMGSYHAHPQKMNFVAPHPPALPVTSSSFFAAPNPYWNSPTGGIYPNTRLPTSHMPSHLGTYY | binds | no binding | binding result [6]: binds
